Data taken from paper PMC11077089, “Molecular basis of A. thaliana KEOPS complex in biosynthesizing tRNA t6A”.
Numbering of substitutions follows the chain as printed.

Key:
Assay in all cases: EMSA; 1:5 RNA:protein; MST: 20 mM PBS pH 7.5, 300 mM NaCl, 0.05% Tween 20, 25 C, 50 nM RNA; EMSA: 20 mM Tris-HCl pH 7.5, 300 mM NaCl, 5 mM b-mercaptoethanol, 20% glycerol, agarose gel in Tris-glycine pH 8.0 (8.5 for FAM-RNA), 4 C
Conditions in all cases: protein: recombinant;recombinant;recombinant;recombinant; tags: ;none (6His on partner CGI121);6His (C-term);6His (C-term); chain copies: 2;2;2;2; label: 5' 6-FAM; tRNA cloverleaf
[1] = molecular target: T1, KAE1 K202R;BUD32;CGI121;PCC1 (Arabidopsis thaliana;Arabidopsis …, UniProt O49653;Q94K14;Q6NMZ4;Q8GWD7 1-353;1-226;1-172;1-96, K202R|||)
T1 sequence 1: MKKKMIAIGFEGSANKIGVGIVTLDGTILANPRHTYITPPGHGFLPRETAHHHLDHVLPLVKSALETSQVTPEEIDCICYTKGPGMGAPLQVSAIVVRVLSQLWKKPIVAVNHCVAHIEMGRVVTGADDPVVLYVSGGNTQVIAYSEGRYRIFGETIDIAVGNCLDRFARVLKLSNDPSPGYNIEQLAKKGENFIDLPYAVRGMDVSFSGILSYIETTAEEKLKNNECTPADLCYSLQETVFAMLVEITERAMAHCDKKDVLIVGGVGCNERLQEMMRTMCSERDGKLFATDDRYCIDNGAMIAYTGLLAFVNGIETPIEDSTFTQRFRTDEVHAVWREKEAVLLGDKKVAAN
T1 sequence 2: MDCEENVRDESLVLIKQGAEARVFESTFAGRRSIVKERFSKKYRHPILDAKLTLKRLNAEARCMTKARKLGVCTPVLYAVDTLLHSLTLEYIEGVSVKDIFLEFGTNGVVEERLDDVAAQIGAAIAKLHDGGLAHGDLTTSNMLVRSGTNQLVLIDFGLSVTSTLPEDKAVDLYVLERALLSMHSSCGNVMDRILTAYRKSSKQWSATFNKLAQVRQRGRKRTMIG
T1 sequence 3: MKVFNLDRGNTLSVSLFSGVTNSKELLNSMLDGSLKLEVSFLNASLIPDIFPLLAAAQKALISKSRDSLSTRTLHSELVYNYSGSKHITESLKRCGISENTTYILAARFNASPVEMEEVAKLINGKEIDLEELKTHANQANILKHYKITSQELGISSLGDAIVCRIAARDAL
T1 sequence 4: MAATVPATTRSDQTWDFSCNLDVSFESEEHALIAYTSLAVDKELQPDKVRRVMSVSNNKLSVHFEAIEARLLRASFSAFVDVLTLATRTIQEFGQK

[2] = molecular target: T2, KAE1 A231G;BUD32;CGI121;PCC1 (Arabidopsis thaliana;Arabidopsis …, UniProt O49653;Q94K14;Q6NMZ4;Q8GWD7 1-353;1-226;1-172;1-96, A231G|||)
T2 sequence 1: T1 sequence 1 with R202K, A231G
T2 sequence 2: T1 sequence 2
T2 sequence 3: T1 sequence 3
T2 sequence 4: T1 sequence 4

[3] = molecular target: T3, KAE1 R284C;BUD32;CGI121;PCC1 (Arabidopsis thaliana;Arabidopsis …, UniProt O49653;Q94K14;Q6NMZ4;Q8GWD7 1-353;1-226;1-172;1-96, R284C|||)
T3 sequence 1: T1 sequence 1 with R202K, R284C
T3 sequence 2: T1 sequence 2
T3 sequence 3: T1 sequence 3
T3 sequence 4: T1 sequence 4

[4] = molecular target: T4, KAE1 I17F;BUD32;CGI121;PCC1 (Arabidopsis thaliana;Arabidopsis …, UniProt O49653;Q94K14;Q6NMZ4;Q8GWD7 1-353;1-226;1-172;1-96, I17F|||)
T4 sequence 1: T1 sequence 1 with I17F, R202K
T4 sequence 2: T1 sequence 2
T4 sequence 3: T1 sequence 3
T4 sequence 4: T1 sequence 4

Measured: binding result

B1: 5'-6FAM-tRNAArgCCU (structured_RNA)
RNA: GCGCCUGUAGCUCAGUGGAUAGAGCGUCUGUUUCCUAAGCAGAAGGUCGUAGGUUCGACCCCUACCUGGCGCGCCA
binds: [1] | [2] | [3] | [4]
